Measurements published in patent US10578620B2, “Methods for detecting molecules in a sample” (The Francis Crick Institute Limited, priority 2013, dated 2020).

Tested on: pT308 (Akt phosphorylation)
Assay: Two-site TSA-FRET for pT308 in FFPE human breast tumour, CIP specificity control
Method: TSA-FRET assay for quantification of pT308 was performed on 4-μm sections of two identical FFPE-fixed breast cancer tissue samples.
Following de-waxing and rehydration, sections were subjected to heat antigen retrieval by microwaving in TRIS-EDTA (pH 9.0) buffer, for 10 minutes at 800 W. Sections were then incubated in freshly prepared sodium borohydrate (1 mg/ml in PBS) buffer for 10 min at RT, followed by blocking with 1% BSA/PBS. Tissues sections were incubated with peroxidase suppressor (Thermo Scientific Pierce) for 15 min.
For the two-site TSAFRET assay, the first slide was incubated with mouse anti-panAkt (1:100), and the second slide with mouse anti-panAkt (1:100) and rabbit anti-pT308 (1:200) primary antibodies, for 16 hours at 4° C. The first slide was further immunolabeled with ORG488-conjugated anti-mouse Fab fragment secondary antibody (20 μg/ml). The second slide was immunolabeled with ORG488-conjugated anti-mouse Fab fragment (20 μg/ml) and HRP-conjugated anti-rabbit Fab fragment secondary antibody (10 μg/ml), which was detected by using Alexa-594-TSA assay. […]
The donor lifetimes of ORG488 were determined from at least 10 ROIs of the tumours, each performed in triplicate unless otherwise indicated. The FRET efficiency was calculated as described above (FIG. 4(a)-(c)).

B1: calf intestinal alkaline phosphatase (protein, UniProt P19111 20-506, looked up)
Intestinal-type alkaline …: LVPVEEEDPAFWNRQAAQALDVAKKLQPIQTAAKNVILFLGDGMGVPTVTATRILKGQMNGKLGPETPLAMDQFPYVALSKTYNVDRQVPDSAGTATAYLCGVKGNYRTIGVSAAARYNQCKTTRGNEVTSVMNRAKKAGKSVGVVTTTRVQHASPAGAYAHTVNRNWYSDADLPADAQMNGCQDIAAQLVNNMDIDVILGGGRKYMFPVGTPDPEYPDDASVNGVRKRKQNLVQAWQAKHQGAQYVWNRTALLQAADDSSVTHLMGLFEPADMKYNVQQDHTKDPTLQEMTEVALRVVSRNPRGFYLFVEGGRIDHGHHDDKAYMALTEAGMFDNAIAKANELTSELDTLILVTADHSHVFSFGGYTLRGTSIFGLAPSKALDSKSYTSILYGNGPGYALGGGSRPDVNDSTSEDPSYQQQAAVPQASETHGGEDVAVFARGPQAHLVHGVEEETFVAHIMAFAGCVEPYTDCNLPAPTTATSIPD
notes: phosphatase used as control to verify FRET signal is due to Akt phosphorylation
For B1, the “FRET efficiency (Ef) of panAkt+pT308 in CIP-treated tumour samples” value (CIP 10 units/slide 30 min, untreated Ef=6.0) was 1.5% and the “change of FRET efficiency of the panAkt+pT308 signal in the CIP-treated condition” value (FIG. 4(c), p<0.0001) was “reduction”.
